B1: A02_Rd4_0.6nM_C18 (antibody, V domains shown)
VH: EVQLLESGGGLVQPGGSLRLSCAASGFTFSSYAMNWVRQAPGKGLEWVSAVLDSGGSTYYADSVKGRFTISRDNSKNTLYLQMNSLRAEDTAVYYCARYWPMSLWGQGTLVTVSS
VL: EIVLTQSPGTLSLSPGERATLSCRASQSVSELYLAWYQQKPGQAPRLLMYDASIRATGIPDRFSGSGSGTDFTLTISRLEPEDFAVYYCQQYFGWPLTFGQGTKVEIK
notes: IgG
B2: COMBO_Rd4_0.6nM_C22 (antibody, V domains shown)
VH: B1 VH with V51I, L52S, T58R, Y59W, A97T, S103D, L104I
VL: B1 VL with Q27V, S28R, E31S, L32T, F93M, G94K
notes: IgG; also called COM22
B3: L3.PY/L3.KF/H3.AQ (antibody, V domains shown)
VH: EVQLLESGGGLVQPGGSLRLSCAASGFTFGSYAMTWVRQAPGKGLEWVSAISGSGGNTFYADSVKGRFTISRDNSKNTLYLQMNSLRAEDTAVYYCARVSPIAAQMDYWGQGTLVTVSS
VL: EIVLTQSPGTLSLSPGERATLSCRASQSVSSSYLAWYQQKPGQAPRLLIYGASSRATGIPDRFSGSGSGTDFTLTISRLEPEDFAVYYCKFYPYPPSFTFGQGTKVEIK
notes: IgG
B4: L3.PY/L1.FF/H2.QL (antibody, V domains shown)
VH: B3 VH with S63Q, V64L, A104S, Q105G
VL: B3 VL with S32F, Y33F, K90Q, F91H
notes: IgG
B5: L3.PY/L1.PH/H2.HA (antibody, V domains shown)
VH: B3 VH with G53H, S54A, A104S, Q105G
VL: B3 VL with S31P, S32H, K90Q, F91H
notes: IgG
B6: L3.PY/L1.FF/H3.AQ (antibody, V domains shown)
VH: B3 VH
VL: B3 VL with S32F, Y33F, K90Q, F91H
notes: IgG
B7: L3.PY/L1.PH/H3.AE (antibody, V domains shown)
VH: B3 VH with Q105E
VL: B3 VL with S31P, S32H, K90Q, F91H
notes: IgG
B8: L3.PY/L1.FF/H2.YQ (antibody, V domains shown)
VH: B3 VH with G53Y, S54Q, A104S, Q105G
VL: B3 VL with S32F, Y33F, K90Q, F91H
notes: IgG
B9: L3.PY/L1.FF/H3.YA (antibody, V domains shown)
VH: B3 VH with A103Y, Q105G
VL: B3 VL with S32F, Y33F, K90Q, F91H
notes: IgG
B10: L3.PY/L1.FF/H3.TAQ (antibody, V domains shown)
VH: B3 VH with A97T
VL: B3 VL with S32F, Y33F, K90Q, F91H
notes: IgG
B11: L3.PY/L1.PH/H3.AQ (antibody, V domains shown)
VH: B3 VH
VL: B3 VL with S31P, S32H, K90Q, F91H
notes: IgG
B12: L3.PY/L1.AH/H3.TAQ (antibody, V domains shown)
VH: B3 VH with A97T
VL: B3 VL with S31A, S32H, K90Q, F91H
notes: IgG
B13: L3.PY/L1.FF/H2.HA (antibody, V domains shown)
VH: B3 VH with G53H, S54A, A104S, Q105G
VL: B3 VL with S32F, Y33F, K90Q, F91H
notes: IgG
B14: L3.PY/L1.PH/H3.TAQ (antibody, V domains shown)
VH: B3 VH with A97T
VL: B3 VL with S31P, S32H, K90Q, F91H
notes: IgG
B15: L3.PY/L1.FF/H2.DY (antibody, V domains shown)
VH: B3 VH with S52D, G53Y, A104S, Q105G
VL: B3 VL with S32F, Y33F, K90Q, F91H
notes: IgG
B16: L3.PY/L1.FF/H3.AE (antibody, V domains shown)
VH: B3 VH with Q105E
VL: B3 VL with S32F, Y33F, K90Q, F91H
notes: IgG
B17: L3.PY/L1.PH/H2.QR (antibody, V domains shown)
VH: B3 VH with S63Q, V64R, A104S, Q105G
VL: B3 VL with S31P, S32H, K90Q, F91H
notes: IgG
B18: L3.PY/L1.FF/H2.LT (antibody, V domains shown)
VH: B3 VH with G53L, S54T, A104S, Q105G
VL: B3 VL with S32F, Y33F, K90Q, F91H
notes: IgG
B19: L3.PY/L1.FF/H2.QR (antibody, V domains shown)
VH: B3 VH with S63Q, V64R, A104S, Q105G
VL: B3 VL with S32F, Y33F, K90Q, F91H
notes: IgG

Residue numbers refer to the chain shown, from its start.

T1 sequence (A0A2K5UD97 entry or part of it): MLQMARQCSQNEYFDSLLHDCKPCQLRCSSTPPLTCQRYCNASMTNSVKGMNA

The target of one experiment is Human BCMA (human) (UniProt Q02223). The experiment in a line: SPR, IgG on chip, huBCMA analyte. (SPR reads the build-up and loss of mass on a sensor chip optically.)
Broadly, the Kd is the free concentration of one partner at which half of the binding sites on the other are occupied at equilibrium, for simple one-to-one binding. Broadly, the koff is a measure of how fast the partners let go of each other. What is called kon is the second-order rate constant of association. In the case of B1, the Kd was 0.048 nM, the koff was 0.000229 s⁻¹ and the kon turned out to be 4.73e+06 M⁻¹ s⁻¹.

Take B2: the Kd is 0.036 nM, the koff was 7.15e-05 s⁻¹ and the on-rate (kon) came to 1.97e+06 M⁻¹ s⁻¹.

Another experiment shares this target. The experiment can be described thus: SPR, IgG immobilised, huBCMA analyte, 37 C.
For B3, the equilibrium dissociation constant (Kd) amounted to 0.65 nM, the T½ came out at 5.09 min, the koff was 0.00227 s⁻¹ and the kon came out at 3.48e+06 M⁻¹ s⁻¹.

With B4, the Kd was found to be 0.4 nM, the T½ came to 8.28 min, the koff stood at 0.0014 s⁻¹ and the kon is 3.48e+06 M⁻¹ s⁻¹.

With B5, the Kd is 0.49 nM, the T½ is 9.99 min, the koff amounted to 0.00116 s⁻¹ and the kon is 2.37e+06 M⁻¹ s⁻¹.

Molecule B6 yielded a Kd of 0.46 nM, a T½ of 7.51 min, a koff of 0.00154 s⁻¹ and a kon of 3.32e+06 M⁻¹ s⁻¹.

As for B7, the Kd was determined as 0.36 nM, the T½ is 8.61 min, the koff turned out to be 0.00134 s⁻¹ and the on-rate constant (kon) worked out at 3.68e+06 M⁻¹ s⁻¹.

B8 yielded a Kd of 0.46 nM, a T½ of 7.61 min, a koff of 0.00152 s⁻¹ and a kon of 3.32e+06 M⁻¹ s⁻¹.

Molecule B9 registered a Kd of 0.51 nM, a T½ of 6.41 min, a koff of 0.0018 s⁻¹ and a kon of 3.5e+06 M⁻¹ s⁻¹.

The molecule B10 displayed a dissociation constant (Kd) of 0.54 nM, a T½ of 6.12 min, an off-rate constant (koff) of 0.00189 s⁻¹ and an on-rate constant (kon) of 3.52e+06 M⁻¹ s⁻¹.

In turn, B11 returned a Kd of 0.52 nM, a T½ of 7.27 min, a koff of 0.00159 s⁻¹ and an on-rate (kon) of 3.08e+06 M⁻¹ s⁻¹.

The molecule B12 yielded a Kd of 0.37 nM, a T½ of 9.68 min, a koff of 0.00119 s⁻¹ and an association rate constant (kon) of 3.27e+06 M⁻¹ s⁻¹.

B13 yielded a Kd of 0.63 nM, a T½ of 5.29 min, an off-rate constant (koff) of 0.00219 s⁻¹ and a kon of 3.49e+06 M⁻¹ s⁻¹.

For the molecule B14, the Kd amounted to 0.59 nM, the T½ worked out at 5.43 min, the koff is 0.00213 s⁻¹ and the kon is 3.58e+06 M⁻¹ s⁻¹.

Turning to B15, the Kd amounted to 0.65 nM, the T½ came to 4.27 min, the koff amounted to 0.00271 s⁻¹ and the kon was 4.14e+06 M⁻¹ s⁻¹.

In the case of B16, the Kd was 0.69 nM, the T½ was 4.39 min, the koff is 0.00263 s⁻¹ and the kon was determined as 3.82e+06 M⁻¹ s⁻¹.

Molecule B17 yielded a Kd of 0.64 nM, a T½ of 4.89 min, an off-rate constant (koff) of 0.00236 s⁻¹ and a kon of 3.69e+06 M⁻¹ s⁻¹.

For B18, the equilibrium dissociation constant (Kd) stood at 0.51 nM, the T½ was determined as 6.92 min, the koff turned out to be 0.00167 s⁻¹ and the kon is 3.3e+06 M⁻¹ s⁻¹.

B19 came in with a Kd of 0.51 nM, a T½ of 6.54 min, a koff of 0.00177 s⁻¹ and a kon of 3.47e+06 M⁻¹ s⁻¹.

The next experiment concerns the target T1, cynomolgus monkey BCMA (cynomolgus monkey, UniProt A0A2K5UD97 1-53).
T1 construct: Soluble analyte in SPR; construct not described; also called cyBCMA; Cyno BCMA
The experiment in a line: SPR, IgG on chip, cyBCMA analyte.
In turn, B1 showed a Kd of 0.197 nM, a koff of 0.000639 s⁻¹ and a kon of 3.24e+06 M⁻¹ s⁻¹.

With B2, binding was put at a Kd of 0.05 nM, the koff stood at 6.66e-05 s⁻¹ and the kon was found to be 1.34e+06 M⁻¹ s⁻¹.

A further experiment addresses T1, cynomolgus monkey BCMA. The experiment in a line: SPR, IgG on chip, cyBCMA analyte, 37C.
For B3, the affinity, expressed as Kd, was 0.93 nM; the “T½” value stood at 4.85 min; the koff came out at 0.00238 s⁻¹; the on-rate constant (kon) stood at 2.55e+06 M⁻¹ s⁻¹.

As for B4, the equilibrium dissociation constant (Kd) was determined as 1.91 nM, the “T½” value came to 2.57 min, the koff is 0.00449 s⁻¹ and the kon is 2.36e+06 M⁻¹ s⁻¹.

Turning to B5, binding was characterised by a dissociation constant (Kd) of 3.44 nM, the “T½” value is 2.09 min, the koff was 0.00553 s⁻¹ and the kon was 1.61e+06 M⁻¹ s⁻¹.

For B6, the Kd came out at 1.51 nM, the “T½” value is 3.51 min, the koff is 0.00329 s⁻¹ and the kon worked out at 2.18e+06 M⁻¹ s⁻¹.

Turning to B7, the dissociation constant Kd stood at 0.77 nM, the “T½” value turned out to be 5.72 min, the koff is 0.00202 s⁻¹ and the kon came to 2.61e+06 M⁻¹ s⁻¹.

In the case of B8, the Kd came to 1.49 nM, the “T½” value was found to be 3.55 min, the off-rate constant (koff) stood at 0.00326 s⁻¹ and the kon worked out at 2.19e+06 M⁻¹ s⁻¹.

For B9, the Kd stood at 1.69 nM, the “T½” value was 2.77 min, the koff is 0.00416 s⁻¹ and the kon is 2.46e+06 M⁻¹ s⁻¹.

B10: the Kd was determined as 1.62 nM, the “T½” value came to 3.07 min, the koff is 0.00376 s⁻¹ and the kon amounted to 2.32e+06 M⁻¹ s⁻¹.

Regarding B11, the Kd was found to be 1.5 nM, the “T½” value is 3.39 min, the koff was 0.00341 s⁻¹ and the kon turned out to be 2.28e+06 M⁻¹ s⁻¹.

On to B12, for which the Kd came out at 1.32 nM, the “T½” value stood at 3.83 min, the dissociation rate constant (koff) turned out to be 0.00302 s⁻¹ and the kon is 2.28e+06 M⁻¹ s⁻¹.

Take B13: binding was characterised by a dissociation constant (Kd) of 1.79 nM, the “T½” value was 2.77 min, the koff came to 0.00417 s⁻¹ and the kon was determined as 2.33e+06 M⁻¹ s⁻¹.

As to B14, the dissociation constant Kd is 1.28 nM, the “T½” value was determined as 3.61 min, the koff was 0.0032 s⁻¹ and the kon stood at 2.51e+06 M⁻¹ s⁻¹.

As to B15, the Kd was determined as 1.88 nM, the “T½” value worked out at 2.31 min, the koff turned out to be 0.005 s⁻¹ and the association rate constant (kon) amounted to 2.66e+06 M⁻¹ s⁻¹.

For the molecule B16, the Kd was found to be 1.76 nM, the “T½” value came to 2.31 min, the koff turned out to be 0.00501 s⁻¹ and the on-rate (kon) turned out to be 2.85e+06 M⁻¹ s⁻¹.

With B17, the Kd was found to be 1.8 nM, the “T½” value was determined as 2.65 min, the koff turned out to be 0.00436 s⁻¹ and the kon stood at 2.42e+06 M⁻¹ s⁻¹.

Turning to B18, the Kd amounted to 1.56 nM, the “T½” value came to 3.38 min, the off-rate (koff) was determined as 0.00341 s⁻¹ and the kon turned out to be 2.19e+06 M⁻¹ s⁻¹.

In the case of B19, the affinity, expressed as Kd, was 1.65 nM; the “T½” value was 2.75 min; the off-rate constant (koff) was determined as 0.00421 s⁻¹; the kon worked out at 2.55e+06 M⁻¹ s⁻¹.

The values are drawn from patent US20190241669A1 (published 2019).
